Patent US12129308

Biological target: Aggrecan
Assay: competition ELISA (CAP) on Aggrecan; competitor not stated

IC50: 0.87 nM
B1: C010100626 (bispecific antibody, part only; not given: albumin binder and linker, not shown: small tags and cut ends)
chain, part: EVQLVESGGGLVQPGGSLRLSCAASGSTFIINVVRWYRRAPGKQRELVATISSGGNANYVDSVRGRFTISRDNSKNTVYLQMNSLRPEDTAVYYCNVPTTHYGGVYYGPYWGQGTLVTVSSEVQLVESGGGLVQPGGSLRLSCAASGSTFIINVVRWYRRAPGKQRELVATISSGGNANYVDSVRGRFTISRDNSKNTVYLQMNSLRPEDTAVYYCNVPTTHYGGVYYGPYWGQGTLVTVSS
